Data taken from paper PMC6358511.

Target: EGFRvIII, biotinylated (human, UniProt P00533 25-30+298-645, V30G;internal_change)
Experiment: BLI

B1: ME07 (alkyne-modified MinE07) (XNA)
RNA: GGACGGAUUUAAUCGCCGUAGAAAAGCAUGUCAAAGCCGGAACCGUCC
modifications: 2'-fluoro at all C and U; 2'-OH purines; 5' alkyne
Kd: 271 nM
